Data: patent publication US9657110B2, “Polypeptides and use thereof” (ASTON UNIVERSITY, priority 2011, dated 2017)

B1: D94A, D97A: TG2 fibronectin binding site mutant (protein, UniProt P21980 2-687, looked up, variant D94A D97A)
Protein-glutamine …: AEELVLERCDLELETNGRDHHTADLCREKLVVRRGQPFWLTLHFEGRNYEASVDSLTFSVVTGPAPSQEAGTKARFPLRDAVEEGDWTATVVAQQACTLSLQLTTPANAPIGLYRLSLEASTGYQGSSFVLGHFILLFNAWCPADAVYLDSEEERQEYVLTQQGFIYQGSAKFIKNIPWNFGQFEDGILDICLILLDVNPKFLKNAGRDCSRRSSPVYVGRVVSGMVNCNDDQGVLLGRWDNNYGDGVSPMSWIGSVDILRRWKNHGCQRVKYGQCWVFAAVACTVLRCLGIPTRVVTNYNSAHDQNSNLLIEYFRNEFGEIQGDKSEMIWNFHCWVESWMTRPDLQPGYEGWQALDPTPQEKSEGTYCCGPVPVRAIKEGDLSTKYDAPFVFAEVNADVVDWIQQDDGSVHKSINRSLIVGLKISTKSVGRDEREDITHTYKYPEGSSEEREAFTRANHLNKLAEKEETGMAMRIRVGQSMNMGSDFDVFAHITNNTAEEYVCRLLLCARTVSYNGILGPECGTKYLLNLNLEPFSEKSVPLCILYEKYRDCLTESNLIKVRALLVEPVINSYLLAERDLYLENPEIKIRILGEPKQKRKLVAEVSLQNPLPVALEGCTFTVEGAGLTEEQKTVEIPDPVEAGEEVKVRMDLLPLHMGLHKLVVNFESDKLKAVKGFRNVIIGPA

Legend:
[1] = tested on: Human osteoblasts (HOB) cells; assay: Cell attachment on wells coated with BSA-conjugated extended P1 peptide, BSA or FN; assay type: cell-based; conditions: soluble peptide 100 μg/ml, compared to RAD control peptide
Experimental: 96-Well ELISA plates were coated with 1 μg/ml of bovine serum albumin (BSA) conjugated peptide (“Extended P1”: […]c; SEQ ID NO:29) conjugated through its C-terminal cysteine via Beta-maleimidopropionic acid N-hydroxysuccinimide ester (MPS). Peptides were dissolved in NaHCO3/Na2CO3 coating buffer, pH 9.6 and plates coated at 4° C. for overnight. Wells coated with 1 μg/ml BSA NaHCO3/Na2CO3 coating buffer or 5 μg/ml FN in 50 mM Tris-HCl, pH 7.4 were used as the control coating materials. Human osteoblasts (HOB) cells in suspension was treated with 100 μg/ml RAD (GRADS; SEQ ID NO:9) or RGD (GRGDTP; SEQ ID NO:8) peptide for 20 min, the cells (3×10^4/well) were seeded into the wells, previously washed with 50 mM Tris-HCl, pH 7.4, and allowed to settle for 30 min. Attached cells were washed once with PBS, pH 7.4, and then fixed with 3.7% paraformaldehyde, further permeabilized with 0.1% (v/v) Triton® X-100 detergent in PBS, and co-stained with May-Grunwald and Giemsa stains as described previously.

[2] = tested on: FN; assay: Measurement of TG2 binding to FN by ELISA (cell lysates); conditions: lysates of transfected HEK293T/17 cells, normalised for expression
Experimental: Microtitre 96 well plates were coated with 50 μl of 5 μg/ml FN in 50 mM Tris-HCl, pH 7.4 at 4° C. overnight. The wells were blocked for 30 min with 5% (w/v) fat-free milk in PBS, pH 7.4 and washed twice with PBS-TWEEN® detergent, pH 7.4 and once with PBS, pH 7.4. Aliquots (100 μl) of cell lysate containing 60 μg protein were added to the FN-coated wells and incubated for 1 h at 37° C. After washing three times with PBS, pH 7.4, wells were blocked with 100 μl 3% BSA in PBS, pH 7.4 (blocking buffer) for 30 min at room temperature and then incubated with 100 μl Cub7402 (1:1000 dilution in blocking buffer) for 2 h at 37° C. After washing three times with PBS, pH 7.4, the wells were incubated with 100 μl rabbit anti-mouse IgG-HRP conjugated antibody (1:1000 dilution in blocking buffer) for 2 h at 37° C. HRP was detected by the addition of 100 μl of o-phenylenediamine substrate solution (SigmaFast […]™ OPD, Sigma). Colour development was terminated by the addition of 50 μl of 2.5M H2SO4 and absorbance at 490 nm was measured. The amount of TG2/mutant TG2 binding to the FN was normalised between samples by using the densitometry values from Western blotting for the TG protein found in each of the cell lysates used. α-Tubulin was used to normalise for any differences in protein loading.

[3] = tested on: NIH 3T3 cells; assay: Detection of TG2 at cell surface (biotinylation), in ECM and in culture medium of transfected cells; assay type: cell-based, mouse; conditions: transfected NIH 3T3 cells, biotinylation and Western blot, vs wild-type TG2
Experimental: Cell surface proteins were labelled by biotinylation as described previously (Wang et al., 2010). Briefly, cell monolayers were rinsed three times with ice-cold PBS pH 8.0 and labelled with 0.8 mM sulfo-NHS-LC-biotin dissolved in PBS pH 8.0 at 4° C. for 20 min. Cells were then washed with 50 mM Tris-HCl, pH 8.0 and lysed with 1% SDS at 4° C. in PBS pH8.0. Following denaturation at 95° C., cell lysates were clarified by centrifugation at 14,000×g at 20° C. and 200 μg of protein was incubated overnight at 4° C. with NEUTRAVIDIN® avidin protein-Agarose resin. After washing three times with PBS pH 8.0, the biotin-labelled proteins were dissolved in 2× Laemmli buffer separated by SDS-PAGE and subjected to Western blotting.
Following transfection, cells were incubated for 24 h with 10% (v/v) serum, which was replaced with 1% (v/v) serum and TG2 expression was allowed to proceed for a further 48 h. Proteins from 1 ml of medium were precipitated by the addition of ice cold 20% (w/v) trichloroacetic acid (TCA) to a final concentration of 10% (w/v) Pelleted proteins were then washed once with ice cold 10% (w/v) TCA, ethanol-acetone (1:1) and acetone, and resuspended in 2× Laemmli buffer (Sigma-Aldrich, UK) and analysed by SDS-PAGE and Western blot analysis using monoclonal anti-TG2 antibody (Cub7402). The remaining cells were detached with 2 mM EDTA in PBS, pH 7.4 and the ECM was extracted with 0.1% (w/v) deoxycholate in PBS, pH 7.4. The residual deoxycholate-insoluble ECM proteins were dissolved in 2× Laemmli buffer for further analysis by SDS-PAGE and Western blotting using Cub7402.

[4] = Binding of TG2 to heparin SEPHAROSE, elution with NaCl gradient; conditions: compared with wt TG2
Experimental: HEK cells, transiently transfected with wild-type and mutant TG2 were washed twice with ice cold PBS, pH 7.4 and lysed by the addition of 150 μl of 20 mM Tris-HCl pH 7.4, 10 mM EGTA, 2 mM EDTA, 1 mM NaF and 1 mM Na3VO4. After clarification by centrifugation, lysates were mixed with 450 μl of 50 mM Tris-HCl, 1 mM EDTA, 1 mM DTT, pH 7.5 and applied to a 5 ml Heparin SEPHAROSE® column (GE Healthcare) equilibrated in 50 mM Tris-HCl, 1 mM EDTA, 1 mM DTT pH 7.5 (buffer) at a flow rate of 1 ml/min. For the analysis of GTP-bound TG2 (closed conformation), lysates were pre-incubated for 1 h at room temperature with 0.5 mM GTP in 50 mM Tris-HCl, 2 mM MgCl2, 1 mM EDTA, 1 mM DTT pH 7.5. For the analysis of inhibitor-reacted TG2 (open conformation), lysates were incubated with 0.5 mM of irreversible inhibitor R281 (Griffin et al., 2008) and 10 mM CaCl2. The column was washed with 25 ml of buffer and protein was eluted with a linear gradient of increasing NaCl concentration (0-1M) in buffer. Fractions were assayed for TG2 activity and analysed for the presence of TG2 antigen by SDS-PAGE and Western blotting using CUB7402.

Row | Molecule | block of cell attachment on the FN matrix [1] | binding to FN compared to wild type TG2 [2] | presence on the cell surface [3] | binding to heparin SEPHAROSE (in words) [4]
1 | GRGDTP [RGD peptide, synthetic RGD peptide from Calbiochem] | around 50% | – | – | –
2 | B1 | – | approximately 50% | greater levels | comparable elution profile to the wt enzyme
